These results are taken from patent US20170183415A1 (Novartis, published 2017).

The labels stand for the following.
T1: immobilized CD123 (UniProt P26951 19-305, limits assumed)
T1 construct: also called IL-3Rα; IL3Rα
T1 sequence (looked up): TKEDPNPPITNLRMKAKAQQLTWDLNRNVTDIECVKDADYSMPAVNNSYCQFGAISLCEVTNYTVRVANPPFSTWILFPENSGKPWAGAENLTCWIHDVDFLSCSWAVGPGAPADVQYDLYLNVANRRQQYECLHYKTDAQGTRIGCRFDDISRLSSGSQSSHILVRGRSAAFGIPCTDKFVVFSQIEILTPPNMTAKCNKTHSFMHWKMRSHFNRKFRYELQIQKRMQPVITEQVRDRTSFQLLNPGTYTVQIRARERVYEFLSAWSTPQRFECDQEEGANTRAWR

T2: human CD123-Fc (human, UniProt P26951 19-305, limits assumed)
T2 construct: Staining reagent; not shown: Fc part
T2 sequence (looked up): T1 sequence (looked up)

B1: parent mouse scFv (anti-CD123, clone 32716) (scFv)
scFv: DIVLTQSPASLAVSLGQRATISCRASESVDNYGNTFMHWYQQKPGQPPKLLIYRASNLESGIPARFSGSGSRTDFTLTINPVEADDVATYYCQQSNEDPPTFGAGTKLELKGGGGSGGGGSSGGGSQIQLVQSGPELKKPGETVKISCKASGYIFTNYGMNWVKQAPGKSFKWMGWINTYTGESTYSADFKGRFAFSLETSASTAYLHINDLKNEDTATYFCARSGGYDPMDYWGQGTSVTVSS
notes: also called mouse Ctrl scFv
B2: CAR 5 - Full (humanized CD123 CAR) (other)
chain: QIQLVQSGSELKKPGASVKVSCKASGYIFTNYGMNWVRQAPGQGLEWMGWINTYTGESTYSADFKGRFVFSLDTSVSTAYLQINALKAEDTAVYYCARSGGYDPMDYWGQGTTVTVSSGGGGSGGGGSGGGGSGGGGSDIVLTQSPDSLAVSLGERATINCRASESVDNYGNTFMHWYQQKPGQPPKLLIYRASNLESGVPDRFSGSGSRTDFTLTISSLQAEDVAVYYCQQSNEDPPTFGQGTKLEIKTTTPAPRPPTPAPTIASQPLSLRPEACRPAAGGAVHTRGLDFACDIYIWAPLAGTCGVLLLSLVITLYCKRGRKKLLYIFKQPFMRPVQTTQEEDGCSCRFPEEEEGGCELRVKFSRSADAPAYKQGQNQLYNELNLGRREEYDVLDKRRGRDPEMGGKPRRKNPQEGLYNELQKDKMAEAYSEIGMKGERRRGKGHDGLYQGLSTATKDTYDALHMQALPPR
notes: Chimeric antigen receptor on transduced human T cells; also called GW86-29RB
B3: 109375 CAR6 - Full (humanized CD123 CAR) (other)
chain: QIQLVQSGSELKKPGASVKVSCKASGYIFTNYGMNWVRQAPGQGLEWMGWINTYTGESTYSADFKGRFVFSLDTSVSTAYLQINALKAEDTAVYYCARSGGYDPMDYWGQGTTVTVSSGGGGSGGGGSGGGGSGGGGSEIVLTQSPATLSLSPGERATLSCRASESVDNYGNTFMHWYQQKPGQAPRLLIYRASNLESGIPARFSGSGSRTDFTLTISSLEPEDVAVYYCQQSNEDPPTFGQGTKLEIKTTTPAPRPPTPAPTIASQPLSLRPEACRPAAGGAVHTRGLDFACDIYIWAPLAGTCGVLLLSLVITLYCKRGRKKLLYIFKQPFMRPVQTTQEEDGCSCRFPEEEEGGCELRVKFSRSADAPAYKQGQNQLYNELNLGRREEYDVLDKRRGRDPEMGGKPRRKNPQEGLYNELQKDKMAEAYSEIGMKGERRRGKGHDGLYQGLSTATKDTYDALHMQALPPR
notes: Chimeric antigen receptor; also called MW89-29GB
B4: CD123 CAR 1172 (mouse anti-human CD123 CAR, scFv 32716 light-to-heavy, CD8 hinge, 4-1BB, CD3zeta) (other)
chain: GSDIVLTQSPASLAVSLGQRATISCRASESVDNYGNTFMHWYQQKPGQPPKLLIYRASNLESGIPARFSGSGSRTDFTLTINPVEADDVATYYCQQSNEDPPTFGAGTKLELKGGGGSGGGGSSGGGSQIQLVQSGPELKKPGETVKISCKASGYIFTNYGMNWVKQAPGKSFKWMGWINTYTGESTYSADFKGRFAFSLETSASTAYLHINDLKNEDTATYFCARSGGYDPMDYWGQGTSVTVSSASSGTTTPAPRPPTPAPTIASQPLSLRPEACRPAAGGAVHTRGLDFACDIYIWAPLAGTCGVLLLSLVITLYCKRGRKKLLYIFKQPFMRPVQTTQEEDGCSCRFPEEEEGGCELRVKFSRSADAPAYKQGQNQLYNELNLGRREEYDVLDKRRGRDPEMGGKPRRKNPQEGLYNELQKDKMAEAYSEIGMKGERRRGKGHDGLYQGLSTATKDTYDALHMQALPPR
notes: Chimeric antigen receptor expressed on human T cells; also called C1172; clone 72
B5: CAR 8 - Full (humanized CD123 CAR) (other)
chain: QIQLVQSGAEVKKPGASVKVSCKASGYIFTNYGMNWVRQAPGQRLEWMGWINTYTGESTYSADFKGRVTITLDTSASTAYMELSSLRSEDTAVYYCARSGGYDPMDYWGQGTTVTVSSGGGGSGGGGSGGGGSGGGGSEIVLTQSPATLSLSPGERATLSCRASESVDNYGNTFMHWYQQKPGQAPRLLIYRASNLESGIPARFSGSGSRTDFTLTISSLEPEDVAVYYCQQSNEDPPTFGQGTKLEIKTTTPAPRPPTPAPTIASQPLSLRPEACRPAAGGAVHTRGLDFACDIYIWAPLAGTCGVLLLSLVITLYCKRGRKKLLYIFKQPFMRPVQTTQEEDGCSCRFPEEEEGGCELRVKFSRSADAPAYKQGQNQLYNELNLGRREEYDVLDKRRGRDPEMGGKPRRKNPQEGLYNELQKDKMAEAYSEIGMKGERRRGKGHDGLYQGLSTATKDTYDALHMQALPPR
notes: Chimeric antigen receptor on transduced human T cells; also called UL69-05CC
B6: CAR 7 Full (humanized CD123 CAR) (other)
chain: QIQLVQSGAEVKKPGASVKVSCKASGYIFTNYGMNWVRQAPGQRLEWMGWINTYTGESTYSADFKGRVTITLDTSASTAYMELSSLRSEDTAVYYCARSGGYDPMDYWGQGTTVTVSSGGGGSGGGGSGGGGSGGGGSDIVLTQSPDSLAVSLGERATINCRASESVDNYGNTFMHWYQQKPGQPPKLLIYRASNLESGVPDRFSGSGSRTDFTLTISSLQAEDVAVYYCQQSNEDPPTFGQGTKLEIKTTTPAPRPPTPAPTIASQPLSLRPEACRPAAGGAVHTRGLDFACDIYIWAPLAGTCGVLLLSLVITLYCKRGRKKLLYIFKQPFMRPVQTTQEEDGCSCRFPEEEEGGCELRVKFSRSADAPAYKQGQNQLYNELNLGRREEYDVLDKRRGRDPEMGGKPRRKNPQEGLYNELQKDKMAEAYSEIGMKGERRRGKGHDGLYQGLSTATKDTYDALHMQALPPR
notes: Chimeric antigen receptor on transduced human T cells; also called WW88-24LB

One assay deals with T1, immobilized CD123. The experiment in a line: ELISA, soluble scFv on immobilized CD123. (In general: An ELISA detects its analyte on a solid surface through an enzyme-linked reagent.)
By EC50 is commonly meant the concentration at which the effect is half-maximal. On to B1, for which the EC50 was in the range of 1.1 to 2.6 nM.

A further assay deals with T2, human CD123-Fc. The experiment in a line: flow cytometry of transduced T cells (day 10) stained with human CD123-Fc, then anti-human Fc PE; unit not given. An excerpt:
To detect the transduction efficiency and level of expression of each construct, transduced T cells on day 10 of expansion were stained with (i) Alexa fluor 647 goat anti-mouse F(ab) reagent, (ii) FITC goat anti-human F(ab), or (iii) human CD123-Fc primary followed by anti-human Fc PE.
On the technique in general: A flow cytometer gives signals particle by particle.
Consider B2, for which the “Expression by CD123-Fc” value worked out at 46.1.
Consider B3, for which the “Expression by CD123-Fc” value was found to be 0.64.
On the same count and under the same terms, the value for B4 was 32.3; that for B5 was 73.2; that for B6 was 51.
